Data on 17 substances can be found in patent US12559863B2, “Macrocyclic modulators of disease associated protein misfolding and aggregation” (RESQ BIOTECH, priority 2017, dated 2026).

For the first assay, the target named is T1, Aβ42-GFP (Homo sapiens, UniProt P05067).
T1 construct: a chimeric fusion of the human Aβ(1-42) peptide (Aβ42) with GFP; expressed in transfected cells; host or cells: E. coli BL21(DE3)
Description: High-throughput sequencing of pSICLOPPS vectors isolated after bacterial sorting for enhanced Aβ42-GFP fluorescence. As to conditions: after the second round of bacterial sorting; relative to total TXXXR reads. An excerpt:
On the other hand, very few bioactive sequences resembling AβC5-34 should exist. […] The peptide-encoding vectors contained in these clones were isolated and the peptide-encoding region of approximately 5.6 million of these plasmids was sequenced using an Ion Torrent high-throughput sequencing platform. […] First, pentapeptides were the dominant peptide species within the sorted pool (FIG. 12D), in agreement with previous observations (FIG. 8G). Second, the most prevalent motif among the selected pentapeptide sequences were TXXXR pentapeptides (˜47% of the selected pentapeptide-encoding pSICLOPPS plasmids; ˜42% of the unique selected pentapeptide sequences) (Table 1), in accordance with previous observations (FIG. 8G). […] At position 2, Thr, Ala, and Val were preferred, while aromatic residues (Phe, Trp, Tyr) were completely excluded from the selected TXXXR peptide pool, in full agreement with our site-directed mutagenesis studies. At the highly variable position 3, the complete absence of the negatively charged amino acids Glu and Asp among the selected sequences was notable (FIG. 12E). […] It is noteworthy, that Lys and Gln residues were practically absent from all positions, while the β sheet-breaking amino acid Pro that is typically included in designed peptide-based inhibitors of amyloid aggregation appeared with strikingly low frequencies (FIG. 12E).
Electrocompetent E. coli BL21(DE3) cells (Novagen, USA) carrying either the expression vector pETSOD1(A4V)-GFP, which produces SOD1(A4V)-GFP under control of the strong bacteriophage T7 promoter, or pETAβ42-GFP, which produces Aβ42-GFP under control of the T7 promoter, were co-transformed with the combined pSICLOPPS-NuX1X2X3-X5 vector library. Approximately 10^8 transformants carrying both the vector library and either pETSOD1(A4V)-GFP or pETAβ42-GFP vectors were harvested, pooled together, and grown in Luria-Bertani (LB) liquid medium containing either 0.005% (pETSOD1(A4F)-GFP) or 0.002% (pETAβ42-GFP) L-arabinose—the inducer of cyclic peptide production—at 37° C. with shaking. When the optical density at 600 nm (OD600) of the bacterial culture was about 0.5, 0.01 (pETSOD1(A4F)-GFP) or 0.1 (pETAβ42-GFP) mM isopropyl-β-D-thiogalactoside (IPTG) was added to the medium to induce overexpression of the reporter. […] The isolated cells were re-grown and screened for additional rounds in an identical manner until the desired enrichment in high-fluorescence clones was achieved.
For the characterization of the initial libraries, a combined pSICLOPPS-NuX1X2X3-X5 vector library was prepared containing approximately equal amounts of each one of the tetra-, penta- and hexapeptide sub-libraries. These samples were digested with NcoI and BsrGI and the resulting ˜250 bp product that contained the variable peptide-encoding region was isolated. High-throughput sequencing analysis was performed using an Ion Torrent high-throughput sequencing platform. From the obtained data, all the sequences with mismatches outside of the variable peptide-encoding region were removed, and only the 12-, 15- or 18-bp-long peptide-encoding sequences were subjected to further analysis. The libraries of the selected cyclic peptides that enhance either SOD1(A4V)-GFP or Aβ42-GFP fluorescence were sequenced in a similar manner, with the only exception being that all sequences including stop codons were discarded from subsequent analysis.
With AβC5-173 (TTHAR; cyclic), the “Reads/Total TXXXR reads (%)” value is on record as 0.050%.
In the case of AβC5-176 (TAGWR; cyclic), the “Reads/Total TXXXR reads (%)” value is listed as 0.050%.
Regarding AβC5-177 (TATAR; cyclic), the “Reads/Total TXXXR reads (%)” value is reported as 0.049%.
AβC5-184 (TVLAR; cyclic): the “Reads/Total TXXXR reads (%)” value is given as 0.043%.
Still for that read-out and setting: the same measure for AβC5-185 (TTFNR; cyclic): 0.042%; for AβC5-188 (TGMRR; cyclic): 0.040%; for AβC5-190 (TLCLR; cyclic): 0.039%.
As for AβC5-215 (TTPWR; cyclic), the “Reads/Total TXXXR reads (%)” value is 0.028%.
Turning to AβC5-218 (TVLHR; cyclic), the “Reads/Total TXXXR reads (%)” value is listed as 0.026%.
With AβC5-223 (TGLDR; cyclic), the “Reads/Total TXXXR reads (%)” value was 0.024%.
AβC5-239 (TTMHR; cyclic): the “Reads/Total TXXXR reads (%)” value was determined as 0.020%.
Still for that read-out and setting: the same measure for AβC5-242 (TTSTR; cyclic): 0.020%.
On to AβC5-244 (TTRVR; cyclic), for which the “Reads/Total TXXXR reads (%)” value is given as 0.019%.
Turning to AβC5-245 (TTRFR; cyclic), the “Reads/Total TXXXR reads (%)” value came out at 0.019%.
Take AβC5-248 (TTTHR; cyclic): the “Reads/Total TXXXR reads (%)” value was found to be 0.018%.
AβC5-252 (TVIWR; cyclic): the “Reads/Total TXXXR reads (%)” value was found to be 0.017%.
As to AβC5-253 (TTWFR; cyclic), the “Reads/Total TXXXR reads (%)” value is recorded as 0.017%.

The assay is the same for the next values; noted with them: after the second round of bacterial sorting; relative to total pentapeptide reads.
AβC5-173 (TTHAR; cyclic): the “Reads/Total pentapeptide reads (%)” value was determined as 0.023%.
AβC5-176 (TAGWR; cyclic): the “Reads/Total pentapeptide reads (%)” value is given as 0.023%.
In the case of AβC5-177 (TATAR; cyclic), the “Reads/Total pentapeptide reads (%)” value is 0.023%.
As to AβC5-184 (TVLAR; cyclic), the “Reads/Total pentapeptide reads (%)” value was found to be 0.020%.
Consider AβC5-185 (TTFNR; cyclic), for which the “Reads/Total pentapeptide reads (%)” value is given as 0.020%.
On to AβC5-188 (TGMRR; cyclic), for which the “Reads/Total pentapeptide reads (%)” value was determined as 0.019%.
Turning to AβC5-190 (TLCLR; cyclic), the “Reads/Total pentapeptide reads (%)” value is given as 0.018%.
Take AβC5-215 (TTPWR; cyclic): the “Reads/Total pentapeptide reads (%)” value came to 0.013%.
Still for that read-out and setting: in the case of AβC5-218 (TVLHR; cyclic) it was 0.012%; in that of AβC5-223 (TGLDR; cyclic), 0.011%.
As to AβC5-239 (TTMHR; cyclic), the “Reads/Total pentapeptide reads (%)” value was 0.009%.
Still for that read-out and setting: the same measure for AβC5-242 (TTSTR; cyclic): 0.009%; for AβC5-244 (TTRVR; cyclic): 0.009%; for AβC5-245 (TTRFR; cyclic): 0.009%.
Take AβC5-248 (TTTHR; cyclic): the “Reads/Total pentapeptide reads (%)” value amounted to 0.008%.
For AβC5-252 (TVIWR; cyclic), the “Reads/Total pentapeptide reads (%)” value came out at 0.008%.
Same read-out and setting: in the case of AβC5-253 (TTWFR; cyclic) it was 0.008%.

The same assay, now with this note: after the second round of bacterial sorting; relative to total peptide reads.
For AβC5-173 (TTHAR; cyclic), the “Reads/Total peptide reads (%)” value is listed as 0.021%.
On to AβC5-176 (TAGWR; cyclic), for which the “Reads/Total peptide reads (%)” value is given as 0.021%.
As to AβC5-177 (TATAR; cyclic), the “Reads/Total peptide reads (%)” value came out at 0.020%.
As for AβC5-184 (TVLAR; cyclic), the “Reads/Total peptide reads (%)” value is given as 0.018%.
Same read-out and setting: in the case of AβC5-185 (TTFNR; cyclic) it was 0.018%; in that of AβC5-188 (TGMRR; cyclic), 0.017%.
On to AβC5-190 (TLCLR; cyclic), for which the “Reads/Total peptide reads (%)” value is 0.016%.
As to AβC5-215 (TTPWR; cyclic), the “Reads/Total peptide reads (%)” value amounted to 0.012%.
On to AβC5-218 (TVLHR; cyclic), for which the “Reads/Total peptide reads (%)” value worked out at 0.011%.
Regarding AβC5-223 (TGLDR; cyclic), the “Reads/Total peptide reads (%)” value was 0.010%.
In the case of AβC5-239 (TTMHR; cyclic), the “Reads/Total peptide reads (%)” value turned out to be 0.008%.
With AβC5-242 (TTSTR; cyclic), the “Reads/Total peptide reads (%)” value is 0.008%.
Same read-out and setting: in the case of AβC5-244 (TTRVR; cyclic) it was 0.008%; in that of AβC5-245 (TTRFR; cyclic), 0.008%.
On to AβC5-248 (TTTHR; cyclic), for which the “Reads/Total peptide reads (%)” value was determined as 0.007%.
Still for that read-out and setting: the same measure for AβC5-252 (TVIWR; cyclic): 0.007%; for AβC5-253 (TTWFR; cyclic): 0.007%.

Staying with this assay, now noted: high-throughput sequencing of isolated pSICLOPPS-NuX1X2X3-X5 vectors after the second round of bacterial sorting for enhanced Aβ42-GFP fluorescence; selected cyclo-TXXXR pentapeptides.
Consider AβC5-173 (TTHAR; cyclic), for which the Number of reads is 953.
Take AβC5-176 (TAGWR; cyclic): the Number of reads amounted to 945.
On to AβC5-177 (TATAR; cyclic), for which the Number of reads was 925.
On the same count and under the same terms, the same measure for AβC5-184 (TVLAR; cyclic): 818; for AβC5-185 (TTFNR; cyclic): 800.
AβC5-188 (TGMRR; cyclic): the Number of reads worked out at 768.
With AβC5-190 (TLCLR; cyclic), the Number of reads was 739.
As to AβC5-215 (TTPWR; cyclic), the Number of reads came to 524.
Still for that read-out and setting: in the case of AβC5-218 (TVLHR; cyclic) it was 497; in that of AβC5-223 (TGLDR; cyclic), 464.
Regarding AβC5-239 (TTMHR; cyclic), the Number of reads is given as 384.
As for AβC5-242 (TTSTR; cyclic), the Number of reads amounted to 376.
For the substance AβC5-244 (TTRVR; cyclic), the Number of reads came to 366.
For AβC5-245 (TTRFR; cyclic), the Number of reads stood at 364.
Still for that read-out and setting: the same measure for AβC5-248 (TTTHR; cyclic): 339; for AβC5-252 (TVIWR; cyclic): 331; for AβC5-253 (TTWFR; cyclic): 327.
